Reference: the supplement of paper PMC9732359
± gives the uncertainty stated by the source.

Assay: protein stability index of a GFP-peptide fusion (yeast GPS) (PSI 1-4); higher = more stable; sorted into four equal gates, so the index is relative within each strain
Outline: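 Yeast carrying a pooled library were grown to mid-log phase in leucine-free medium. Each library plasmid expresses Cherry and has a tiled 17-residue yeast protein peptide fused downstream of GFP. Cells were sorted into four equal gates by GFP/Cherry ratio, and plasmids from each gate were PCR-amplified, Illumina-sequenced and assigned to strains by barcode. Summing, across gates, the read frequency times the gate number gave each peptide's protein stability index.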

ERKKSIGSQRGRRLSML [DSN1]
protein stability index (doa10∆): 3.18 ± 0.11
protein stability index (pdr5∆): 2.53 ± 0.087
protein stability index (san1∆): 3.13 ± 0.098
protein stability index (ubr1∆): 2.92 ± 0.093

GSDKQMFTQIYLERIEL [YML103C/NUP188]
protein stability index (doa10∆): 2.5 ± 0.095
protein stability index (pdr5∆): 2.36 ± 0.086
protein stability index (san1∆): 1.62 ± 0.23
protein stability index (ubr1∆): 1.53 ± 0.048

PDKLLGVILMFAAILVL [COB]
protein stability index (doa10∆): 1.63 ± 0.11
protein stability index (pdr5∆): 1.62 ± 0.11
protein stability index (san1∆): 1.66 ± 0.12
protein stability index (ubr1∆): 1.59 ± 0.11

LILTSHNMKAYYKKFLI [BRR2]
protein stability index (ubr1∆): 2.54 ± 0.14

FTNRIPSKTPEVYMRYR [SWI3]
protein stability index (doa10∆): 2.08 ± 0.052
protein stability index (pdr5∆): 1.88 ± 0.057
protein stability index (san1∆): 2.35 ± 0.068
protein stability index (ubr1∆): 2.03 ± 0.054

PQALRVLRLKPGRKYTT [RPL16A]
protein stability index (doa10∆): 2.97 ± 0.044
protein stability index (pdr5∆): 3.05 ± 0.046
protein stability index (san1∆): 3.13 ± 0.046
protein stability index (ubr1∆): 3.21 ± 0.05

DYNLRIYCYFLIMKLGR [SSN8]
protein stability index (doa10∆): 1.23 ± 0.084
protein stability index (pdr5∆): 1.12 ± 0.098
protein stability index (san1∆): 1.36 ± 0.29
protein stability index (ubr1∆): 1.39 ± 0.11

HLLLGFQVSNVISLGPN [YJL039C/NUP192]
protein stability index (doa10∆): 1.37 ± 0.052
protein stability index (pdr5∆): 1.75 ± 0.049
protein stability index (san1∆): 2.08 ± 0.088
protein stability index (ubr1∆): 1.8 ± 0.042

KGVGRRYSNLVCKKADV [RPS18A]
protein stability index (doa10∆): 3.46 ± 0.2
protein stability index (pdr5∆): 2.37 ± 0.11
protein stability index (san1∆): 1.74 ± 0.1
protein stability index (ubr1∆): 2.49 ± 0.074

QNAAANAEAKGLDATKL [RPL17A]
protein stability index (doa10∆): 2.8 ± 0.28
protein stability index (pdr5∆): 3.39 ± 0.24
protein stability index (san1∆): 1.93 ± 0.25

GGHSLEEISFSLSEGCD [PRP28]
protein stability index (doa10∆): 2.17 ± 0.11
protein stability index (pdr5∆): 2.42 ± 0.067
protein stability index (san1∆): 1.93 ± 0.13
protein stability index (ubr1∆): 2.25 ± 0.094

GFEQVKIALGSPIVNVL [RRI2]
protein stability index (doa10∆): 1.56 ± 0.15
protein stability index (pdr5∆): 2.78 ± 0.2
protein stability index (san1∆): 1.48 ± 0.25
protein stability index (ubr1∆): 2.52 ± 0.12

INSSNEALVQAFAFCIP [YCG1]
protein stability index (doa10∆): 2.18 ± 0.055
protein stability index (pdr5∆): 2.31 ± 0.051
protein stability index (san1∆): 2.49 ± 0.059
protein stability index (ubr1∆): 2.09 ± 0.041

QLQKILESLKPIDDTMT [MTW1]
protein stability index (doa10∆): 2.73 ± 0.072
protein stability index (pdr5∆): 2.86 ± 0.058
protein stability index (san1∆): 2.69 ± 0.052
protein stability index (ubr1∆): 2.59 ± 0.042

TSQNPQRDAEISQPKSM [BRR2]
protein stability index (doa10∆): 3.27 ± 0.11
protein stability index (pdr5∆): 3.04 ± 0.27
protein stability index (san1∆): 3.11 ± 0.13
protein stability index (ubr1∆): 2.88 ± 0.11

IEKCLKASELKLALGIA [RPN2]
protein stability index (doa10∆): 2.75 ± 0.1
protein stability index (pdr5∆): 3.1 ± 0.13
protein stability index (san1∆): 3 ± 0.098
protein stability index (ubr1∆): 2.69 ± 0.24

YENKQLYFPDDYPFTQL [POP1]
protein stability index (doa10∆): 2.92 ± 0.048
protein stability index (pdr5∆): 2.99 ± 0.039
protein stability index (san1∆): 2.93 ± 0.043
protein stability index (ubr1∆): 3.01 ± 0.036

VRKAITVLFFIGVRCYE [FAS1]
protein stability index (doa10∆): 1.47 ± 0.087
protein stability index (pdr5∆): 1.77 ± 0.075
protein stability index (san1∆): 2.49 ± 0.098
protein stability index (ubr1∆): 1.45 ± 0.064

SNDFEEGSTIRYLAVTL [YMR129W/POM152]
protein stability index (doa10∆): 2.06 ± 0.05
protein stability index (pdr5∆): 2.28 ± 0.049
protein stability index (san1∆): 2.12 ± 0.062
protein stability index (ubr1∆): 2.26 ± 0.053

TGAGVSTSLGIPDFRSS [SIR2]
protein stability index (doa10∆): 2.19 ± 0.079
protein stability index (pdr5∆): 2.51 ± 0.082
protein stability index (san1∆): 2.1 ± 0.19
protein stability index (ubr1∆): 2.86 ± 0.078

IMSTEAHVNKVTEETTK [SIR4]
protein stability index (doa10∆): 2.77 ± 0.09
protein stability index (pdr5∆): 2.89 ± 0.059
protein stability index (san1∆): 2.97 ± 0.04
protein stability index (ubr1∆): 2.85 ± 0.063

QKEEGRSFTKAIEDAKK [YLR335W/NUP2]
protein stability index (doa10∆): 3.1 ± 0.11
protein stability index (pdr5∆): 3.06 ± 0.085
protein stability index (san1∆): 3.05 ± 0.086
protein stability index (ubr1∆): 2.8 ± 0.069

EKVILVQEQLSKNRIIV [RET1]
protein stability index (doa10∆): 1.63 ± 0.087
protein stability index (pdr5∆): 1.38 ± 0.084
protein stability index (san1∆): 1.5 ± 0.11
protein stability index (ubr1∆): 1.37 ± 0.052

GDTVRILDTSQSESRQK [SNU114]
protein stability index (doa10∆): 2.81 ± 0.051
protein stability index (pdr5∆): 2.96 ± 0.054
protein stability index (san1∆): 2.77 ± 0.05
protein stability index (ubr1∆): 2.9 ± 0.04

ICNPVHKHREARGLTAT [RPL15B]
protein stability index (doa10∆): 2.81 ± 0.078
protein stability index (pdr5∆): 2.52 ± 0.082
protein stability index (san1∆): 2.59 ± 0.092
protein stability index (ubr1∆): 2.42 ± 0.062

FIEDLAPEQQVQQFAQL [UBP6]
protein stability index (doa10∆): 2.79 ± 0.059
protein stability index (pdr5∆): 3.02 ± 0.046
protein stability index (san1∆): 3.04 ± 0.049
protein stability index (ubr1∆): 2.98 ± 0.037

KALILAPTRELVQQIQK [PRP28]
protein stability index (doa10∆): 2.67 ± 0.087
protein stability index (pdr5∆): 2.82 ± 0.055
protein stability index (san1∆): 2.75 ± 0.073
protein stability index (ubr1∆): 3 ± 0.069

MALKFVSIKFTNAAFPF [ECM29]
protein stability index (doa10∆): 2.09 ± 0.058
protein stability index (pdr5∆): 1.98 ± 0.058
protein stability index (san1∆): 1.76 ± 0.078
protein stability index (ubr1∆): 1.82 ± 0.071

ERSICALGEFADWDPES [YML031W/NDC1]
protein stability index (doa10∆): 3.5 ± 0.14
protein stability index (pdr5∆): 3.53 ± 0.092
protein stability index (san1∆): 3.28 ± 0.088
protein stability index (ubr1∆): 3.27 ± 0.064

DENAPVATNANATTDQE [PRE10]
protein stability index (doa10∆): 3.09 ± 0.23
protein stability index (pdr5∆): 3.33 ± 0.15
protein stability index (san1∆): 3.4 ± 0.17

EFEKKLQETLNKSTSSE [YIL149C/MLP2]
protein stability index (doa10∆): 2.95 ± 0.12
protein stability index (pdr5∆): 2.66 ± 0.11
protein stability index (san1∆): 3.17 ± 0.14
protein stability index (ubr1∆): 3.27 ± 0.15

YVIKALQSLTSKGYVKT [RPS10A]
protein stability index (doa10∆): 2.88 ± 0.12
protein stability index (pdr5∆): 1.74 ± 0.072
protein stability index (san1∆): 1.39 ± 0.17
protein stability index (ubr1∆): 2.6 ± 0.089

NVSENQPWQMDTNNEAD [SNF12]
protein stability index (doa10∆): 3.11 ± 0.052
protein stability index (pdr5∆): 3.26 ± 0.064
protein stability index (san1∆): 3.17 ± 0.042
protein stability index (ubr1∆): 3.25 ± 0.04

IEEQGDALQDVEESSEK [DPB4]
protein stability index (doa10∆): 3.02 ± 0.12
protein stability index (pdr5∆): 3.46 ± 0.079
protein stability index (san1∆): 3.13 ± 0.059
protein stability index (ubr1∆): 3.41 ± 0.075

GNAPATPSSDQNPLPTR [SOH1]
protein stability index (doa10∆): 3.44 ± 0.13
protein stability index (pdr5∆): 2.98 ± 0.065
protein stability index (san1∆): 2.63 ± 0.077
protein stability index (ubr1∆): 3.17 ± 0.067

RPQKLRASLVPGTVLIL [RPL6A]
protein stability index (doa10∆): 2.1 ± 0.066
protein stability index (pdr5∆): 2.32 ± 0.064
protein stability index (san1∆): 2.11 ± 0.077
protein stability index (ubr1∆): 2.45 ± 0.081

QHPFPLAHSQHRCAIRS [SSN2]
protein stability index (doa10∆): 1.76 ± 0.05
protein stability index (pdr5∆): 1.42 ± 0.042
protein stability index (san1∆): 1.51 ± 0.091
protein stability index (ubr1∆): 1.27 ± 0.034

GPEITPEEATTIFSVMV [PRP8]
protein stability index (doa10∆): 2.09 ± 0.13
protein stability index (pdr5∆): 2.37 ± 0.14
protein stability index (san1∆): 1.77 ± 0.22
protein stability index (ubr1∆): 2.6 ± 0.13

PSEDVAAPKKTRKAVRP [RPL6B]
protein stability index (doa10∆): 2.74 ± 0.089
protein stability index (pdr5∆): 3.08 ± 0.1
protein stability index (san1∆): 2.93 ± 0.085
protein stability index (ubr1∆): 2.91 ± 0.073

NPRRLEIKDGRSLFLRN [YMR153W/NUP53]
protein stability index (doa10∆): 3.27 ± 0.1
protein stability index (pdr5∆): 2.9 ± 0.11
protein stability index (san1∆): 3.2 ± 0.087
protein stability index (ubr1∆): 3.22 ± 0.085

PNMSICIFGDAFDVDRA [RPL1A]
protein stability index (doa10∆): 2.78 ± 0.071
protein stability index (pdr5∆): 2.52 ± 0.072
protein stability index (san1∆): 1.78 ± 0.084
protein stability index (ubr1∆): 2.4 ± 0.089

QIILAYIKYNILLTSIS [SRP68]
protein stability index (doa10∆): 1.29 ± 0.08
protein stability index (pdr5∆): 1.25 ± 0.074
protein stability index (san1∆): 1.12 ± 0.28
protein stability index (ubr1∆): 1.18 ± 0.15

ARVSPRNNVANKQPRNE [YAR002W/NUP60]
protein stability index (doa10∆): 3.29 ± 0.14
protein stability index (pdr5∆): 3.78 ± 0.26
protein stability index (ubr1∆): 3.65 ± 0.25

SYDCTGVNELAPIPKGR [POP1]
protein stability index (doa10∆): 2.84 ± 0.061
protein stability index (pdr5∆): 2.79 ± 0.057
protein stability index (san1∆): 3.01 ± 0.055
protein stability index (ubr1∆): 3 ± 0.042

STVAKFLARVIKEKFDE [IRR1]
protein stability index (doa10∆): 2.86 ± 0.1
protein stability index (pdr5∆): 2.33 ± 0.082
protein stability index (san1∆): 3.36 ± 0.22
protein stability index (ubr1∆): 2.16 ± 0.09

NSWFDVTWRTFTGDFLR [FAS1]
protein stability index (doa10∆): 2.75 ± 0.11
protein stability index (pdr5∆): 1.93 ± 0.093
protein stability index (san1∆): 1.98 ± 0.12
protein stability index (ubr1∆): 2.61 ± 0.069

LIELSGGQRSLIALSLI [SMC2]
protein stability index (doa10∆): 2.42 ± 0.078
protein stability index (pdr5∆): 2.29 ± 0.09
protein stability index (san1∆): 1.86 ± 0.1
protein stability index (ubr1∆): 2.27 ± 0.035

EQSVKTQNSRHYMVHEA [LIN1]
protein stability index (doa10∆): 2.62 ± 0.25
protein stability index (pdr5∆): 2.82 ± 0.11
protein stability index (san1∆): 2.49 ± 0.089

PKVPVSAAATPSLNKTI [GAL11]
protein stability index (doa10∆): 2.5 ± 0.039
protein stability index (pdr5∆): 2.77 ± 0.033
protein stability index (san1∆): 2.67 ± 0.035
protein stability index (ubr1∆): 2.63 ± 0.036

FRGARKNKGLVVSPYDY [DIB1]
protein stability index (doa10∆): 2.58 ± 0.077
protein stability index (pdr5∆): 2.54 ± 0.088
protein stability index (san1∆): 2.53 ± 0.09
protein stability index (ubr1∆): 2.82 ± 0.081

PDSNHLSSETGIKLALD [SRB4]
protein stability index (doa10∆): 3.3 ± 0.087
protein stability index (pdr5∆): 3.35 ± 0.073
protein stability index (san1∆): 3.33 ± 0.058
protein stability index (ubr1∆): 3.37 ± 0.066
